Measurements as given in CN117836322A (PASTEUR INSTITUT, dated 2024).

Target: T1, SARS-CoV-2 S1结构域 (SARS-CoV-2, UniProt P0DTC2 16-681)
T1 construct: also called S1亚基
Experiment: SPR (Biacore), antibody coupled to CM5 chip, viral protein as analyte, 25°C

Row | Binder | Kd
1 | Cv2.3194 IgG1 (antibody, V domains shown) VH: EVQLVESGGGLIQPGGSLRLSCAASGITVTSNYMSWVRQAPGKGLEWVSVIYPGGSTFYADSVKGRFTISRDNSKNTLYLQMNSLRAEDTAVYYCARDLVVYGMDVWGQGTTVTVSS VL: EIVLTQSPGTLSLSPGERATLSCRASQSVSSSYLAWYQQKPGQAPRLLIYGASSRATGIPGRFSGSGSGTDFTLTISRLEPEDFAIYYCQQGVTFGGGTKVEIKR | < 1000 nM
2 | Cv2.1169 IgG1 (antibody, V domains shown) VH: QVQLVQSGPEVKKPGTSVKVSCKASGFTFTTSAVQWVRQARGQRLEWIGWIVVGSGNTNYAQKFQERVTITRDMSTTTAYMELSSLRSEDTAVYYCAAPYCSGGTCLDGFDIWGQGTMVTVSS VL: not shown | < 1000 nM
3 | Cv2.3235 IgG1 (antibody, V domains shown) VH: EVQLVESGGGLIQPGGSLRLSCAASGFTVSRNYMSWVRQAPGKGLEWVSVIYSGGSTFYADSVKGRFTISRDNSKNTLYLQMNSLRAEDTAVYYCARDGDYYGMDVWGQGTTVTVSS VL: DIQMTQSPSFLSASVGDRVTITCRASQGISSFLAWYQQKPGKAPKLLIYGASTLQSGVTSRFSGSGSGTEFTLTISSLQPEDFATYYCQRLDSYPPITFGQGTRLEIKR | < 1000 nM
4 | Cv2.5213 IgG1 (antibody, V domains shown) VH: EVQLVESGGGLIQPGGSLRLSCAASGFTVSSNYMSWVRQAPGKGLEWVSLIYSGGSTYYADSVKGRFTISRDNSKNTLYLQMNSLRAEDTAVYYCARDLNYYGMDVWGQGATVTVSS VL: DIQMTQSPSSLSASVGDRVTITCRASQGISSYLAWYQQKPGKAPKLLIYAASTLQSGVPSRFSGSGSGTDFTLTISSLQPEDFATYYCQQLDSYSPFTFGPGTKVDIKR | < 1000 nM
5 | Cv2.1353 IgG1 (antibody, V domains shown) VH: EVQLVESGGGLVQPGGSLRLSCAASGVTVSSNYMNWVRQAPGKGLEWVSVIYSGGSTFYADSVKGRFIISRDNSKNTLYLQMNSLKTEDTAVYYCARDLGPMGFDIWGQGTMVTVSS VL: DIQMTQSPSFLSASVGDRVTITCRASQGISSYLAWYQQKPGKAPKLLIYAASTLQSGVPSRFSGSGSGTEFTLTISSLQPEDFATYYCQQLNSDPPVTFGPGTKVDIKR | < 1000 nM
